Reference: patent publication US20240174992A1 (PROMEGA, published 2024)

Experiments:
[1] = molecular target: HaloTag[22-297](Q145H+P154R)-6×His; assay: purified system, 80 nM large fragment, peptide titration, TMR ligand
HaloTag[22-297](M2F) = molecular target: T1, HaloTag[22-297](M2F); assay: apparent affinity from peptide titration (up to 1 mM) of the large fragment in E. coli lysate, JF646 fluorescence complementation; signal did not saturate
T1 construct: also called LgHT (M2F variant); Large HaloTag
T1 sequence (chain, as listed by the source): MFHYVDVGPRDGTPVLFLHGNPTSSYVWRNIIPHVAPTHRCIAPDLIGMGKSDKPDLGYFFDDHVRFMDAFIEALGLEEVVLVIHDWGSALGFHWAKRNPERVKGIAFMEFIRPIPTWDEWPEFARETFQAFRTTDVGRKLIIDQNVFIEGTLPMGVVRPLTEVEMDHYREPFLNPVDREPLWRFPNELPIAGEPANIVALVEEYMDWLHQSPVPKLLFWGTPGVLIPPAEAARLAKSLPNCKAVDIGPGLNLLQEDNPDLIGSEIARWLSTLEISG

[2] = molecular target: T2, HaloTag[22-297](Q145H+P154R); assay: apparent affinity from peptide titration of the large fragment in E. coli lysate, JF646 fluorescence complementation; signal approaches saturation
T2 construct: also called LgHT variant
T2 sequence (chain, as listed by the source Q145H P154R Q145H P154R): as the sequence (chain, as listed by the source) above, with F2M, Q145H, P154R counted along it

HaloTag[22-297](Q145H+P154R)-6×His, sequence (chain, as listed by the source Q145H P154R Q145H P154R): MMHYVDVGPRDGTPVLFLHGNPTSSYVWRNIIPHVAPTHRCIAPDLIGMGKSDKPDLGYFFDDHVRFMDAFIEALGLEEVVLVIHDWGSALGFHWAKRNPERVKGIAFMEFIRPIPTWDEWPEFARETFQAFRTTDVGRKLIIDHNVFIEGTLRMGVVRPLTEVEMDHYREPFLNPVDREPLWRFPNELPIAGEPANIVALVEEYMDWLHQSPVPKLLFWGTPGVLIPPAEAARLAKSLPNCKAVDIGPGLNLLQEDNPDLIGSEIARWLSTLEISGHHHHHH

B1: synthetic HaloTag[3-19] peptide (peptide)
peptide: EIGTGFPFDPHYVEVLG
notes: also called HT(3-19); SmHT
With B1 the binding result [1] was “binds”, the Kd (HaloTag[22-297](M2F)) was greater than 100000 nM and the Kd [2] was roughly 1000 nM.
